What was measured:
[1] = target: FcγRIIIa (UniProt P08637); assay: cell-based or functional assay
[2] = target: human FcγRIIa-H variant (Histidine at amino acid 131) (human) (UniProt P12318); assay: cell-based or functional assay
Sequence of human FcγRIIa-H variant (Histidine at amino acid 131) (human) (P12318 34-317, change not shown): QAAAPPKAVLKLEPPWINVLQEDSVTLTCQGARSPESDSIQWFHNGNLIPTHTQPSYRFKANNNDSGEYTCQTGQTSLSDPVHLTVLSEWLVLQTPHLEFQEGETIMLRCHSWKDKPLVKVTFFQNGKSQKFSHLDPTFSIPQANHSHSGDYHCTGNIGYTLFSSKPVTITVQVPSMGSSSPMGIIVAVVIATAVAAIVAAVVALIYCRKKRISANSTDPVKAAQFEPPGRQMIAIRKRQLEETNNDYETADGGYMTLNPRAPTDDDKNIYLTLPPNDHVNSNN

Sequence of FcγRIIIa (P08637 17-254 F176V limits assumed): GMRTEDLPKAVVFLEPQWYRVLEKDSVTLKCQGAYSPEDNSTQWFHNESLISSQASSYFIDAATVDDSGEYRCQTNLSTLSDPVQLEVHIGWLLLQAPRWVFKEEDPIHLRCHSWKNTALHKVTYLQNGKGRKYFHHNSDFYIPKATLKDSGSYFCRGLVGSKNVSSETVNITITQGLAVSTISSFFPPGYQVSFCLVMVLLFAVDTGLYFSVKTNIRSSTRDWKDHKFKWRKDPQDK

| EC50 (nM) Mean, FcγRIIIa signaling in ADCC reporter assay (HEK-PD-L1 target cells, Jurkat/FcγRIIIa effector cells, luciferase) [1] [nM] | EC50 (nM) Mean, FcγRIIIa signaling in ADCC reporter assay (Raji target cells, Jurkat/FcγRIIIa effector cells, luciferase) [1] [nM] | EC50 (nM) Mean, FcγRIIa signaling in ADCP reporter assay (Raji target cells, Jurkat/FcγRIIa-H effector cells, luciferase) [2] [nM] | Substance |
| --- | --- | --- | --- |
| 0.049 |  |  | avelumab (Bavencio) monoclonal antibody, fucosylated |
|  | 0.08 | 7.1 | obinutuzumab monoclonal antibody, fucosylated |

Source: patent US20220267460A1
